Measured values from patent US20190352419A1 (ALX ONCOLOGY, published 2019).
Where a chain is given by its changes, count along the chain named. Names and notes keep the numbering of the source.

Legend:
human SIRP-α v1 [1] = target: T1, human SIRP-α v1 (human, UniProt P78324 31-149); test: binding affinity KD (SPR; method not restated in Example 7)
T1 construct: used as soluble SPR analyte; also called Human V1; hSIRPa v1

[2] = target: T2, cynomolgus SIRP-α (SEQ ID NO:11) (cynomolgus, UniProt Q5TFQ8 30-148 (human entry)); test: as above
T2 construct: 'extracellular domain (e.g., the D1 domain)' of a cynomolgus SIRP-α polypeptide; soluble SPR analyte; also called cyno1
T2 chain: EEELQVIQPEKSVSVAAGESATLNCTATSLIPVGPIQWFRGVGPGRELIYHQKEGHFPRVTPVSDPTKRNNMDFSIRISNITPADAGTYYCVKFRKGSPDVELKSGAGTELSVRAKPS

NOD mouse SIRP-α protein = target: T3, NOD mouse SIRP-α protein (mouse (NOD strain)); test: as above
T3 construct: Soluble SPR analyte
T3 chain: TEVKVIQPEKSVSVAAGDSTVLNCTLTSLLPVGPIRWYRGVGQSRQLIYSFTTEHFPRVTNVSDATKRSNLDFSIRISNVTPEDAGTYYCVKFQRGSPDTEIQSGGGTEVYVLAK

BL6 mouse SIRP-α protein [3] = target: T4, BL6 mouse SIRP-α protein (mouse (C57BL/6 strain), UniProt P97797 32-148); test: as above
T4 construct: Soluble SPR analyte; also called C57BL/6
T4 sequence: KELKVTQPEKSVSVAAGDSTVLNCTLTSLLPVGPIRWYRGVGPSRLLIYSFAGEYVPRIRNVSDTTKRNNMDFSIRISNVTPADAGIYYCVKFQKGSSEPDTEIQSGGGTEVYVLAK

[4] = target: T5, BALBc mouse SIRP-α protein (mouse (BALB/c strain)); test: as above
T5 construct: Soluble SPR analyte
T5 chain: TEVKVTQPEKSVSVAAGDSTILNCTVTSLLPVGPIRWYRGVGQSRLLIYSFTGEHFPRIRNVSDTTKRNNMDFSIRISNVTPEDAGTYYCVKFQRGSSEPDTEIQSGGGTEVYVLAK

human SIRP-β = target: T6, human SIRP-β (human, UniProt O00241 30-148); test: as above
T6 construct: also called SIRPb; hSIRPb

human SIRP-γ = target: T7, human SIRP-γ (human, UniProt Q9P1W8 29-147); test: as above
T7 construct: also called SIRPg; hSIRPg

human SIRP-α v2 = target: T8, human SIRP-α v2 (human); test: as above
T8 construct: soluble SPR analyte; also called Human V2; hSIRPa v2

human SIRP-α v1 [5] = target: T1, human SIRP-α v1; test: SPR (refers to Table M)
BL6 mouse SIRP-α protein [6] = target: T4, BL6 mouse SIRP-α protein; test: SPR KD (ProteOn XPR36), antibody on chip, SIRP analyte in solution

T6 sequence (O00241 30-148): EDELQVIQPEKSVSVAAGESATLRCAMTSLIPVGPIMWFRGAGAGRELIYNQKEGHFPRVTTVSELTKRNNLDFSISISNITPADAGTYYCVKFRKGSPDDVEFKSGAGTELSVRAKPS
T1 sequence (P78324 31-149): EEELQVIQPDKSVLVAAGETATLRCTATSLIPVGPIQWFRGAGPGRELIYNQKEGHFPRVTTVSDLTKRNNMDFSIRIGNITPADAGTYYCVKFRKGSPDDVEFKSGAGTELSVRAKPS
T7 sequence (Q9P1W8 29-147): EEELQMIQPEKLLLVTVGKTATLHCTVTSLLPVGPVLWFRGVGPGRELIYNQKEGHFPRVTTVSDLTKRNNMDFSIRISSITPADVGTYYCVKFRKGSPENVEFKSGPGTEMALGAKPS
T8 sequence (chain, as listed by the source): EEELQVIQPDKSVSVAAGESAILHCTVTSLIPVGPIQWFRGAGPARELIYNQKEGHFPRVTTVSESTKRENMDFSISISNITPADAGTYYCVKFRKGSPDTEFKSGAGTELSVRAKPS

B1: PC301 (antibody, human IgG1, lambda, N297A)
heavy: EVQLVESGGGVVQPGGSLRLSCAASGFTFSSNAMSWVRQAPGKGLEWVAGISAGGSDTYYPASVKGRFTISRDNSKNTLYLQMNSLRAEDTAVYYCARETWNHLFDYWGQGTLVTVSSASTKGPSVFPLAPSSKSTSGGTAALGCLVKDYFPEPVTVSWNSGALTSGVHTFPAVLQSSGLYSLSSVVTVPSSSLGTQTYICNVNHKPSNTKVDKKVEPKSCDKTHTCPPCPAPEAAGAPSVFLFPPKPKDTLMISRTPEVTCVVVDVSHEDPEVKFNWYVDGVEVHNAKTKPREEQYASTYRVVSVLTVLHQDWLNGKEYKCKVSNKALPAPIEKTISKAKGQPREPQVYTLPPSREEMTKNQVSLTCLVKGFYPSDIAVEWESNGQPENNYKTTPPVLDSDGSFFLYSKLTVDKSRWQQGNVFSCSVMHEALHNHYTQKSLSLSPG
light: SYELTQPPSVSVSPGQTARITCSGGSYSSYYYAWYQQKPGQAPVTLIYSDDKRPSNIPERFSGSSSGTTVTLTISGVQAEDEADYYCGGYDQSSYTNPFGGGTKLTVLGQPKAAPSVTLFPPSSEELQANKATLVCLISDFYPGAVTVAWKADSSPVKAGVETTTPSKQSNNKYAASSYLSLTPEQWKSHRSYSCQVTHEGSTVEKTVAPTECS
notes: also called antibody PC301
In the case of B1, the Kd (human SIRP-α v1 [1]) is reported as 0.00206 nM, the Kd [2] is reported as 0.0389 nM and the Kd (NOD mouse SIRP-α protein) is reported as 2.93 nM. The Kd (BL6 mouse SIRP-α protein [3]) was 9.25 nM, the Kd [4] was 9.53 nM and the Kd (human SIRP-β) was 0.0122 nM.

B2: PC367 (antibody, human IgG2, lambda, N297A)
heavy: EVQLVESGGGVVQPGGSLRLSCAASGFTFSSNAMSWVRQAPGKGLEWVAGISAGGSDTYYPASVKGRFTISRDNSKNTLYLQMNSLRAEDTAVYYCARETWNHLFDYWGQGTLVTVSSASTKGPSVFPLAPCSRSTSESTAALGCLVKDYFPEPVTVSWNSGALTSGVHTFPAVLQSSGLYSLSSVVTVPSSNFGTQTYTCNVDHKPSNTKVDKTVERKCCVECPPCPAPPVAGPSVFLFPPKPKDTLMISRTPEVTCVVVDVSHEDPEVQFNWYVDGVEVHNAKTKPREEQFASTFRVVSVLTVVHQDWLNGKEYKCKVSNKGLPAPIEKTISKTKGQPREPQVYTLPPSREEMTKNQVSLTCLVKGFYPSDIAVEWESNGQPENNYKTTPPMLDSDGSFFLYSKLTVDKSRWQQGNVFSCSVMHEALHNHYTQKSLSLSPG
light: B1 light with K104Q, A114N, S116T, S154G, T165K, N171S, N172D
notes: AB21 MutAll VH + human IgG2 N297A; Hum1 VL version 2 + IGLC1 SD light chain
Binder B2 has a Kd (human SIRP-α v1 [1]) of 0.00211 nM, a Kd (human SIRP-γ) of 0.0352 nM and a Kd (human SIRP-α v2) of 0.0823 nM. It also gave a Kd [2] of 0.0501 nM, a Kd (NOD mouse SIRP-α protein) of 6.37 nM and a Kd (BL6 mouse SIRP-α protein [3]) of 19.7 nM. The Kd [4] was 7.87 nM and the Kd (human SIRP-β) was 0.0327 nM.

B3: PC334 (antibody, human IgG1, lambda, N297A)
heavy: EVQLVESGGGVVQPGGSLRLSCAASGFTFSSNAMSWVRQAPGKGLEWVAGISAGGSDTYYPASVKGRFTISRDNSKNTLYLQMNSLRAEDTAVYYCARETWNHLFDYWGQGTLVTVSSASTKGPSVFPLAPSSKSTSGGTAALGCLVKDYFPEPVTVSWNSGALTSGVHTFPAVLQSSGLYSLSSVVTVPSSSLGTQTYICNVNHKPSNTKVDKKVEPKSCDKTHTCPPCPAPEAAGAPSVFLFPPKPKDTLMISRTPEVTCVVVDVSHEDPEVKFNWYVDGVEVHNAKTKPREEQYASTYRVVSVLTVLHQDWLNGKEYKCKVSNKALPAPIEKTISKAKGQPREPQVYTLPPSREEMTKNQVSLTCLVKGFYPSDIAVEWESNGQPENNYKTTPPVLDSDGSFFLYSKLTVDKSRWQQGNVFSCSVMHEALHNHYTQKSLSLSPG
light: B1 light with A114N, S116T, S154G, T165K
notes: Original Hum1 VL + IGLC1 light chain; also called antibody PC334; Hum1_IGLC1
B3 was tested, and the Kd (human SIRP-α v1 [1]) was 0.0151 nM, the Kd (human SIRP-γ) was 0.0452 nM and the Kd (human SIRP-α v2) was 0.0438 nM. The Kd [2] was 0.0774 nM, the Kd (NOD mouse SIRP-α protein) was 8.19 nM and the Kd (BL6 mouse SIRP-α protein [3]) was 3.29 nM. For the same binder, the Kd [4] was 6.75 nM and the Kd (human SIRP-β) was 0.0371 nM.

B4: Hum8/AB21_HC_Mutall (antibody, V domains shown)
VH: EVQLVESGGGVVQPGGSLRLSCAASGFTFSSNAMSWVRQAPGKGLEWVAGISAGGSDTYYPASVKGRFTISRDNSKNTLYLQMNSLRAEDTAVYYCARETWNHLFDYWGQGTLVTVSS
VL: SYELTQPPSVSVSPGQTARITCSGGAYSSYYYAWYQQKPGQAPVLVIYSDSKRPSGIPERFSGSSSGTTVTLTISGVQAEDEADYYCGGYDQSSYTNPFGGGTKLTVL
With B4 the Kd (human SIRP-α v1 [5]) was ≤ 0.01 nM and the Kd (BL6 mouse SIRP-α protein [6]) was 415000 nM.

B5: Hum9/AB21_HC_Mutall (antibody, V domains shown)
VH: B4 VH
VL: B4 VL with S51D
For B5, the Kd (human SIRP-α v1 [5]) was ≤ 0.01 nM and the Kd (BL6 mouse SIRP-α protein [6]) was 533000 nM.
